Experimental data reported in paper PMC3086075.

Key:
Assay in all cases: discontinuous malachite green phosphate-release assay, Michaelis-Menten fit
Format in all cases: biochemical, Pasteurella multocida
Conditions in all cases: 200 mM sodium acetate pH 5.5, 1 mM MgCl2, 37 °C, apparent Km
[1] = substrate: NC(=O)c1ccc[n+]([C@@H]2O[C@H](COP(=O)([O-])O)[C@@H](O)[C@H]2O)c1
[2] = substrate: Nc1ncnc2c1ncn2[C@@H]1O[C@H](CO)[C@@H](O)[C@H]1OP(=O)(O)O
[3] = substrate: Nc1ncnc2c1ncn2[C@@H]1O[C@H](CO)[C@@H](OP(=O)(O)O)[C@H]1O
[4] = substrate: Nc1ncnc2c1ncn2[C@@H]1O[C@H](COP(=O)(O)O)[C@@H](O)[C@H]1O
[5] = substrate: O=[N+]([O-])c1ccc(OP(=O)(O)O)cc1

B1: rPmCCAP (Pasteurella multocida) (protein)
chain: SNQQAVEQANQAKLQQQVAMGLIWTQQSGEYAALAHQAFNSAKMAFDHAKAKKGKKKAVVVDLDETMIDNSAYAGWQVQSGQGFSPKTWTKWVDARQSAAIPGAVEFSNYVNANGGTMFFVSNRRDDVEKAGTVDDMKRLGFTGVNDKTLLLKKDKSNKSVRFKQVEDMGYDIVLFVGDNLNDFGDATYKKSNAERRDFVAKNSKAFGKKFIVLPNTQYGDWEGGLDKNYFKGDSQSKLDVRAKAIHAWDGK
With B1 the Km [1] was 290 ± 60 µM, the kcat [1] was 4.4 ± 0.3 s⁻¹ and the kcat/Km [1] was 15000 ± 3300 M⁻¹ s⁻¹. For the same protein, the Km [2] was 1400 ± 300 µM, the kcat [2] was 0.13 ± 0.01 s⁻¹ and the kcat/Km [2] was 90 ± 21 M⁻¹ s⁻¹. It also gave a Km [3] of 800 ± 200 µM, a kcat [3] of 0.19 ± 0.01 s⁻¹ and a kcat/Km [3] of 240 ± 61 M⁻¹ s⁻¹. It also gave a Km [4] of 80 ± 10 µM, a kcat [4] of 0.18 ± 0.01 s⁻¹ and a kcat/Km [4] of 2300 ± 310 M⁻¹ s⁻¹. The Km [5] was 500 ± 100 µM, the kcat [5] was 6.2 ± 0.5 s⁻¹ and the kcat/Km [5] was 12000 ± 2700 M⁻¹ s⁻¹.
